According to patent publication US20210301005A1 (Genentech, published 2021):
Substitutions are numbered along the chain they refer to. Read-outs that look alike come from different tables or passages of the source.

What was measured:
[1] = target: T1, human TGFβ2, mature receptor-binding domain (human, UniProt P09858 303-414 (pig entry), The mature TGFβ2 is a disulfide-linked homodimer of this 112-residue chain. The 4A11 epitope spans both monomers (p-1207).); test: BIAcore T200
T1 construct: Peprotech; also called TGFb2
T1 sequence: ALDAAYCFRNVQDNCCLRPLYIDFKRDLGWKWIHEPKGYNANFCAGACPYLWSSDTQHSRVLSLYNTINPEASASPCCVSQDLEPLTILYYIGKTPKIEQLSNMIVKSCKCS
Method in brief: (§1)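 Humanized antibodies captured on protein A CM5 chip (~100 RU), then 3-fold serial dilutions of TGFβ (0.02–5 nM) injected in HBS-EP pH 7.4 at 25° C., 50 μl/min. kon and koff from 1:1 Langmuir fit; KD = koff/kon.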

[2] = target: T2, human TGFβ3, mature dimeric form (human, UniProt P10600 301-412); test: BIAcore T200
T2 construct: Peprotech, expressed in E. coli; also called TGFb3
T2 sequence: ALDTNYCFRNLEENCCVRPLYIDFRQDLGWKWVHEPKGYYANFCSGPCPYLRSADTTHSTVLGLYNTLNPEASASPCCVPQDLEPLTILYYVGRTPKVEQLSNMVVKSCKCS
Method in brief: as §1

[3] = target: T3, human TGFβ1, mature receptor-binding domain (human, UniProt P01137 279-390); test: BIAcore T200
T3 construct: Peprotech; also called TGFb1
Method in brief: as §1

[4] = target: T2, human TGFβ3, mature dimeric form; test: cell-based or functional assay
[5] = target: T1, human TGFβ2, mature receptor-binding …; test: Biacore SPR
[6] = target: T4, mouse TGFβ2, mature peptide (mouse, UniProt P27090 303-414); test: Biacore SPR
T4 construct: mature
T4 sequence (looked up): T1 sequence with S59T, R60K, K94N

[7] = target: T1, human TGFβ2, mature receptor-binding …; test: BIAcore T200; remark: listed apart in the source
Method in brief: as §1

[8] = target: T2, human TGFβ3, mature dimeric form; test: BIAcore T200; remark: listed apart in the source
Method in brief: as §1

[9] = target: T3, human TGFβ1, mature receptor-binding …; test: BIAcore T200; remark: listed apart in the source
Method in brief: as §1

[10] = target: T1, human TGFβ2, mature receptor-binding …; test: cell-based or functional assay
[11] = target: T4, mouse TGFβ2, mature peptide; test: cell-based or functional assay
[12] = target: T1, human TGFβ2, mature receptor-binding …; test: cell-based or functional assay; remark: listed apart in the source
[13] = target: T2, human TGFβ3, mature dimeric form; test: cell-based or functional assay; remark: listed apart in the source
[14] = target: T3, human TGFβ1, mature receptor-binding …; test: cell-based or functional assay
[15] = target: T1, human TGFβ2, mature receptor-binding …; test: cell-based or functional assay; remark: listed apart in the source
[16] = target: T2, human TGFβ3, mature dimeric form; test: cell-based or functional assay; remark: listed apart in the source
[17] = target: T3, human TGFβ1, mature receptor-binding …; test: cell-based or functional assay; remark: listed apart in the source
[18] = target: T1, human TGFβ2, mature receptor-binding …; test: cell-based or functional assay; remark: listed apart in the source
[19] = target: T2, human TGFβ3, mature dimeric form; test: cell-based or functional assay; remark: listed apart in the source
[20] = target: T3, human TGFβ1, mature receptor-binding …; test: cell-based or functional assay; remark: listed apart in the source
[21] = target: T1, human TGFβ2, mature receptor-binding …; test: BIAcore T200; remark: listed apart in the source
Method: (§2) For binding affinity determinations of all humanized 2A10 antibodies, Surface Plasmon Resonance (SPR) measurement with a BIAcore™-T200 instrument was used. Briefly, series S CM5 biosensor chip with protein A was first applied to capture each humanized 2A10 variant to achieve approximately 100 response units (RU) on each flow cell, following by injection of 3-fold serial dilutions of human TGFβ1, TGFβ2 or TGFβ3 (0.02 nM to 5 nM) in HBS-EP buffer (0.01M HEPES pH 7.4, 0.15M NaCl, 3 mM EDTA and 0.05% v/v surfactant P20) at 25° C. with a flow rate of 50 μl/min for kinetics measurement. Association rates (ko.) and dissociation rates (koff) were calculated using a simple one-to-one Langmuir binding model (BIAcore T200 evaluation software version 2.0) to determine the equilibrium dissociation constant (KD), which was calculated as the ratio koff/kₒₙ.
(§3) Binding affinity determinations of all humanized 4A11 antibodies were performed using SPR measurement with a BIAcore™-T200 instrument, as described above in Example 6 ([…]).

[22] = target: T2, human TGFβ3, mature dimeric form; test: BIAcore T200; remark: listed apart in the source
Method: as §2, §3

T3 sequence (P01137 279-390 limits assumed): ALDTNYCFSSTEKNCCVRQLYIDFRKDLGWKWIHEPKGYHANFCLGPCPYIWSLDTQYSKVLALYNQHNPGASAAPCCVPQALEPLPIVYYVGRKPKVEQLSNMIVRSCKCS

B1: 4A11 (antibody, V domains shown)
VH: QSLEESGGRLVTPGTPLTLTCTVSGFSLSSYTVNWVRQAPGKGLEWIGYISYGGSAYYASWANGRFTISKTSATVDLKITSPTTEDTATYFCARHMQVGGAPTGSMAAFDPWGPGTLVTVSS
VL: AAVLTQTPSPVSAAVGGTVSISCQSSQSVYNNNYLSWFQQKPGQPPKLLIYGASTLTSGVPSRFKGSGSGTQFTLTISDVQCDDAATYYCAGGYSGSSDKYAFGGGTEVVVKG
notes: anti-TGFβ2/3, recombinant rabbit monoclonal; some paragraphs print the H/L pair as 32/33; also called Rb1.4A11; Rbt 4A11
- Kd [1]: 0.0016 nM
- Kd [2]: 0.0012 nM
- Kd [3]: > 5 nM
- HEKBlue TGFβ blocking IC50 [4]: 0.06 nM
- Kd [5]: 0.008 nM
- Kd [6]: < 0.002 nM
- Kd [7]: 0.0016 nM
- Kd [8]: ≤ 0.0012 nM
- Kd [9]: > 5 nM
- IC50 (read off the curve) [10]: ~0.06 nM
- IC50 (read off the curve) [11]: ~0.07 nM
- HEKBlue TGFβ blocking IC50 [12]: 0.09 nM
- HEKBlue TGFβ blocking IC50 [13]: 0.06 nM
- HEKBlue TGFβ blocking IC50 [14]: > 200 nM
- HEKBlue TGFβ blocking IC50 [15]: 0.09 nM
- HEKBlue TGFβ blocking IC50 [16]: 0.06 nM
- HEKBlue TGFβ blocking IC50 [17]: > 200 nM
- Blocking IC50 [18]: 0.25 nM
- Blocking IC50 [19]: 0.03 nM
- Blocking IC50 [20]: > 500 nM
- Kd [21]: 0.0016 nM
- Kd [22]: ≤ 0.0012 nM
